From the supplement of paper PMC10567573
± gives the standard deviation.

Assay: protein stability index of a GFP-peptide fusion (GPS, HEK-293T) (PSI 1-6); higher = more stable
[1] = treatment: DMSO, c terminus: a fixed tail appended
[2] = treatment: MLN4924 1 uM, 8 h, c terminus: a fixed tail appended
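Also: 24-mer peptide tiles fused after GFP, lentivirally expressed, FACS-sorted into six equal bins by GFP/DsRed ratio, decoded by Illumina sequencing, PSI is the read-weighted mean bin number.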

Sequence	protein stability index [1]	protein stability index [2]	protein stability index (treatment: DMSO, c terminus: native)	protein stability index (treatment: MLN4924 1 uM, 8 h, c terminus: native)
IGEGMTKYDYLMTLHGVVNESTVC [TENT5D]	2.53 ± 0.19	2.33 ± 0.19		
DLKLRKFVFSTEERTQLRLESLED [TRIB1]	3.74 ± 0.1	4.2 ± 0.43		
KVEFPEARIYEETLNILLYEAQDG [KCTD10]	2.77 ± 0.15	2.94 ± 0.35		
YKGRQLQGCPGAKKHEFLTSVLDA [SMOC2]	3.39 ± 0.42	3.73 ± 0.73		
AVAAATAAVEGSGGSGGGSHHHHQ [KCNA4]	5.04 ± 0.33	5.07 ± 0.35		
LLSLVTFTFLSAKCLQGNADGDGG [PCDHGC5]	3.46 ± 0.031	2.93 ± 0.44		
NWFMSFGPEIKLNTSQQGRNQAV [FAM104B]			2.12 ± 0.49	2.73 ± 1
AKTIDTSPPVDLFATASAAVPVST [SNAP91]	4.37 ± 0.1	4.32 ± 0.13		
ARLTGVNDKMAEYTNSAGVPSLNA [GOSR1]	3.83 ± 0.22	4.01 ± 0.16		
KIDLENTLEQEQEALVNRLWKRMD [CCDC6]	3.23 ± 0.41	3.78 ± 0.39		
LWSQSYEDSSNQEEEGPSTFPDLE [MAGEA3]	5.26 ± 0.21	5.06 ± 0.14		
APPPRDYTYRDYGHSSSRDDYPSR [RBMX]	4.43 ± 0.21	4.32 ± 0.078		
VHRRGEYNVYSTFQSHEPEFDYLK [PPP2R2B]	2.97 ± 0.11	2.88 ± 0.17		
MQQLYQVQLAQQQAALQKQQEVVV [ACBD3]	2.96 ± 0.19	3.05 ± 0.22		
KMSNSFHGIRPPQLEQPEKMPVLK [RHOBTB3]	4.33 ± 0.16	4.34 ± 0.068		
QIFANTVDNARIVLQIDNARLAAD [KRT18]	2.78 ± 0.28	2.75 ± 0.33		
QYLMASDMAGKIKLWDLRTTKCVR [DCAF4]	2.26 ± 0.11	2.43 ± 0.26		
RVKLEEDPDGEEGSSIPWNHLPDP [ZNF24]	5.18 ± 0.2	5.19 ± 0.17		
DVDLLDSKVIEILDSQTEIYQYVQ [DLC1]	3.41 ± 0.31	3.62 ± 0.38		
EIQREIGISNALHRLKLRLAIQEM [PPFIA4]	2.35 ± 0.72	2.3 ± 0.45		
EFLGNRSVILNHMAREHAFNIGLP [ZNF277]	2.21 ± 0.19	2.26 ± 0.2		
VAKKTPTKRSTLIISGVSKVPIAQ [C2CD2L]	3.02 ± 0.33	3.24 ± 0.33		

Sequence	protein stability index [1]	protein stability index [2]	protein stability index (treatment: DMSO, c terminus: native)	protein stability index (treatment: MLN4924 1 uM, 8 h, c terminus: native)
YSALSCTSDASFHPAFLPQRQAIK [KCNG1]	2.78 ± 0.23	3.18 ± 0.19		
SSCENKRADLVFIIDSSRSVNTHD [MATN2]	2.81 ± 0.22	2.92 ± 0.13		
CVNYEGQSAYDVADMLKQYFRDLP [DLC1]	2.54 ± 0.21	2.65 ± 0.32		
ILHMNGSQSSTYRGTYEQDGRFEK [ZNF396]	2.86 ± 0.41	3.36 ± 0.14		
GGPGRQTTSPNVLWPTPGHLSPLV [ESR2]	2.97 ± 0.22	3.15 ± 0.048		
PSGCAIACGGLDNKCSVYPLTFDK [GNB5]	2.72 ± 0.17	2.94 ± 0.36		
IITQLEDSRRVTKENSHQVKEELS [TRIM63]	4.28 ± 0.35	4.39 ± 0.26		
ELRDLQVSVESQQVQQVEVEATVK [PRPH]	4.88 ± 0.2	4.96 ± 0.14		
PSRVHGSLEPFRPQQAPQDDGSQD [PWWP2B]	5.52 ± 0.21	5.52 ± 0.22		
PKETQPFPKSEQVYLHFLSVVTED [ZNF232]	2.69 ± 0.24	2.99 ± 0.28		
TDRDEGANGEVTYSFRKLPDTQLL [PCDHGA10]	4.44 ± 0.13	4.41 ± 0.22		
TIQQEKLLAEKEEKLQKEQKELQD [SASS6]	5.52 ± 0.31	5.54 ± 0.23		
QVRSAAVQLIWVVSQLYPESIVPI [INTS4]	3.29 ± 0.32	2.9 ± 0.32		
VMLGAGGVGKSAMTMQFISHRFPE [RIT1]	2.33 ± 0.34	2.12 ± 0.34		
LHTFTPAGRPRAERRPRRVEAERP [FAM189A2]	4.45 ± 0.21	4.45 ± 0.31		
NLGPKSKVLILRNHGLVSVGESVE [ADD1]	2.69 ± 0.23	3.05 ± 0.38		
PGGNLIVELARYLVDVRQEQLQGF [DNAAF3]	2.9 ± 0.56	2.39 ± 0.14		
LRRGASVNRTTRTNSTPLRAACFD [FEM1A]	3.81 ± 0.38	3.87 ± 0.31		
RSGIQFGSWGSFQLPGLLNFGEFK [CLCN6]	2.29 ± 0.26	2.4 ± 0.3		
MACAYAPSGCAIACGGLDNKCSVY [GNB5]	2.44 ± 0.13	2.31 ± 0.25		
KSNGFFHGISIPEPEDMETLEEKF [CDKL4]	4.5 ± 0.14	4.56 ± 0.27		
IARVHGTFGAAACSIGFAVRYLNA [POP5]	2.22 ± 0.26	2.25 ± 0.56		
